We go through 1 sequence from PMC12059597.

The subject of data set [1] is CD44 (predominantly standard isoform CD44s) on human TNBC cells (Homo sapiens (Cis-Pt-R, MDA-MB-231, BT-549 cells)), P16070-12. Put plainly: flow cytometry cell binding with siRNA knockdown. The settings on record: 150 nM aptamer, 2'-fluoro pyrimidines (2'F-Py) in the entire sequence, Flow cytometry: 150 nM Alexa 647-sTN58, serum-free medium, 0.1 mg/mL yeast tRNA, 0.1 mg/mL salmon sperm DNA, 10 min RT, after 30-fold excess unlabeled SCR …, scale: % reduction of binding on CD44 knockdown vs siRNA ctrl.

The test system is the same in data set [2]. Put plainly: flow cytometry cell binding. The settings on record: apparent Kd on whole Cis-Pt-R cells; 2'-fluoro pyrimidines (2'F-Py) in the entire sequence; Flow cytometry: 150 nM Alexa 647-sTN58, serum-free medium, 0.1 mg/mL yeast tRNA, 0.1 mg/mL salmon sperm DNA, 10 min RT, after 30-fold excess unlabeled SCR …; cited from earlier work. A general note: A flow cytometer gives signals particle by particle.

Chain of CD44 (predominantly standard isoform CD44s) on human TNBC cells (Homo sapiens (Cis-Pt-R, MDA-MB-231, BT-549 cells)), P16070-12 (P16070 other isoform, or with tags, fused parts or gaps): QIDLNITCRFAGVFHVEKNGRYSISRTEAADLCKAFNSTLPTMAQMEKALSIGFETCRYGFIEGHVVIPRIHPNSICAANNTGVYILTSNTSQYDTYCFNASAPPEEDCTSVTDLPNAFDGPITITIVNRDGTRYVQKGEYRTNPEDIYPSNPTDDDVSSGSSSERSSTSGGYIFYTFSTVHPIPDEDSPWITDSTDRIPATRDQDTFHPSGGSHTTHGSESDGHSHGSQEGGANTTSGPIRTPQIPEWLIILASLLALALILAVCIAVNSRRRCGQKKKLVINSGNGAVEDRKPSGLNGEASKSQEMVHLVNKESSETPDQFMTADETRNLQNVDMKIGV

“GGACAUAUGAUGCAACGUUGUGGUCCCGUUUGCACUUUGUUUACG [sTN58]”: the binding signal in data set [1] was 55. Besides, the Kd in data set [2] was 10 nM.
